# From the Immune Epitope Database (IEDB)
# Tests used:
# HLA-A*02:12 = test: IEDB peptide-MHC binding, purified MHC/direct/fluorescence; filed as Kd, often an IC50 or EC50 that approximates it; ≥ and ≤ were set here for values at or beyond the usual limits of such assays
# HLA-B*39:01 = test: as above; conditions: source organism: Entamoeba histolytica HM-1:IMSS
# HLA-A*02:16 = test: as above
# HLA-A*02:19 = test: as above
# HLA-A*03:01 = test: as above
# HLA-A*02:11 = test: as above
# HLA-B*57:01 = test: as above
# HLA-B*15:17 = test: as above
# HLA-B*27:03 = test: as above
# HLA-A*02:01 = test: as above
# HLA-B*18:01 = test: as above
# HLA-B*48:01 = test: IEDB peptide-MHC binding, purified MHC/competitive/fluorescence; filed as Kd, often an IC50 or EC50 that approximates it; ≥ and ≤ were set here for values at or beyond the usual limits of such assays
# HLA-A*29:02 = test: IEDB peptide-MHC binding, purified MHC/direct/fluorescence; filed as Kd, often an IC50 or EC50 that approximates it; ≥ and ≤ were set here for values at or beyond the usual limits of such assays
# HLA-A*02:03 [1] = test: as above
# HLA-B*51:01 = test: as above
# HLA-B*46:01 = test: as above
# HLA-A*26:01 = test: as above
# HLA-B*15:01 = test: as above
# HLA-A*24:03 = test: as above
# HLA-A*68:02 = test: as above
# HLA-A*23:01 = test: as above; conditions: source organism: Influenza A virus (A/Memphis/1/1986(H3N2))
# HLA-A*69:01 = test: as above
# HLA-A*02:03 [2] = test: IEDB peptide-MHC binding, purified MHC/competitive/fluorescence; filed as Kd, often an IC50 or EC50 that approximates it; ≥ and ≤ were set here for values at or beyond the usual limits of such assays; conditions: source organism: Human immunodeficiency virus 1
# HLA-A*30:01 = test: as above
# HLA-B*40:01 = test: IEDB peptide-MHC binding, purified MHC/direct/fluorescence; filed as Kd, often an IC50 or EC50 that approximates it; ≥ and ≤ were set here for values at or beyond the usual limits of such assays; conditions: source organism: Lake Victoria marburgvirus - Popp
# HLA-A*31:01 = test: as above; conditions: source organism: Lake Victoria marburgvirus - Popp
# HLA-A*11:01 = test: as above; conditions: source organism: Lake Victoria marburgvirus - Popp
# HLA-A*01:01 = test: as above; conditions: source organism: Lake Victoria marburgvirus - Popp
# HLA-B*27:05 = test: as above; conditions: source organism: Lake Victoria marburgvirus - Popp
# HLA-B*08:01 = test: as above; conditions: source organism: Orthomarburgvirus marburgense
# HLA-B*15:09 = test: as above; conditions: source organism: Orthomarburgvirus marburgense
# HLA-B*07:02 = test: as above; conditions: source organism: Lake Victoria marburgvirus - Popp
# HLA-B*58:01 = test: as above; conditions: source organism: Lake Victoria marburgvirus - Popp
# HLA-C*03:03 = test: as above
# [3] = source organism: Entamoeba histolytica HM-1:IMSS
# [4] = source organism: Listeria monocytogenes serotype 4b str. H7858
# [5] = source organism: Influenza A virus (A/Memphis/1/1986(H3N2))
# [6] = source organism: Lake Victoria marburgvirus - Popp
# [7] = source organism: Orthomarburgvirus marburgense
# [8] = source organism: Francisella tularensis subsp. tularensis FSC033
# [9] = source organism: Francisella tularensis subsp. holarctica LVS
sequence,measurement,setting,value
FIILSTGKY,Kd,HLA-A*02:12; [3],≥ 20 µM
same,Kd,HLA-B*39:01,≥ 20 µM
same,Kd,HLA-A*02:16; [3],≥ 20 µM
same,Kd,HLA-A*02:19; [3],≥ 20 µM
same,Kd,HLA-A*03:01; [3],≥ 20 µM
same,Kd,HLA-A*02:11; [3],≥ 20 µM
same,Kd,HLA-B*57:01; [3],≥ 20 µM
same,Kd,HLA-B*15:17; [3],0.072 µM
same,Kd,HLA-B*27:03; [3],≥ 20 µM
same,Kd,HLA-A*02:01; [3],≥ 20 µM
same,Kd,HLA-B*18:01; [3],≥ 20 µM
LQAMHGFPL,Kd,HLA-B*48:01; source organism: Escherichia coli O157:H7 str. EDL933,0.0968 µM
FPDGKPFTL,Kd,HLA-A*02:12; [4],≥ 20 µM
same,Kd,HLA-A*29:02; [4],≥ 20 µM
same,Kd,HLA-A*02:16; [4],≥ 20 µM
same,Kd,HLA-A*02:03 [1]; [4],≥ 20 µM
same,Kd,HLA-A*02:19; [4],≥ 20 µM
same,Kd,HLA-A*03:01; [4],≥ 20 µM
same,Kd,HLA-B*51:01; [4],≥ 20 µM
same,Kd,HLA-A*02:11; [4],≥ 20 µM
same,Kd,HLA-B*46:01; [4],≥ 20 µM
same,Kd,HLA-B*57:01; [4],≥ 20 µM
same,Kd,HLA-B*15:17; [4],≥ 20 µM
same,Kd,HLA-A*26:01; [4],≥ 20 µM
same,Kd,HLA-B*15:01; [4],≥ 20 µM
same,Kd,HLA-B*27:03; [4],≥ 20 µM
same,Kd,HLA-A*02:01; [4],≥ 20 µM
same,Kd,HLA-B*18:01; [4],≥ 20 µM
NHDGIQAGV,Kd,HLA-A*02:12; [5],≥ 20 µM
same,Kd,HLA-A*29:02; [5],≥ 20 µM
same,Kd,HLA-A*02:16; [5],≥ 20 µM
same,Kd,HLA-A*02:03 [1]; [5],≥ 20 µM
same,Kd,HLA-A*02:19; [5],≥ 20 µM
same,Kd,HLA-A*03:01; [5],≥ 20 µM
same,Kd,HLA-B*51:01; [5],≥ 20 µM
same,Kd,HLA-A*02:11; [5],≥ 20 µM
same,Kd,HLA-B*46:01; [5],≥ 20 µM
same,Kd,HLA-B*57:01; [5],≥ 20 µM
same,Kd,HLA-B*15:17; [5],≥ 20 µM
same,Kd,HLA-A*24:03; [5],≥ 20 µM
same,Kd,HLA-A*26:01; [5],≥ 20 µM
same,Kd,HLA-B*15:01; [5],≥ 20 µM
same,Kd,HLA-B*27:03; [5],≥ 20 µM
same,Kd,HLA-A*68:02; [5],≥ 20 µM
same,Kd,HLA-A*02:01; [5],≥ 20 µM
same,Kd,HLA-B*18:01; [5],≥ 20 µM
same,Kd,HLA-A*23:01,≥ 20 µM
same,Kd,HLA-A*69:01; [5],≥ 20 µM
RSLYNTIAVLY,Kd,HLA-A*02:03 [2],0.679 µM
same,Kd,HLA-A*30:01; source organism: Human immunodeficiency virus 1,1.91 µM
GELRKAICL,Kd,HLA-B*40:01,0.074 µM
same,Kd,HLA-A*31:01,≥ 20 µM
same,Kd,HLA-A*11:01,≥ 20 µM
same,Kd,HLA-B*57:01; [6],≥ 20 µM
same,Kd,HLA-B*15:17; [6],≥ 20 µM
same,Kd,HLA-A*01:01,≥ 20 µM
same,Kd,HLA-B*27:05,≥ 20 µM
same,Kd,HLA-B*08:01,≥ 20 µM
same,Kd,HLA-A*26:01; [7],≥ 20 µM
same,Kd,HLA-A*68:02; [6],≥ 20 µM
same,Kd,HLA-A*02:01; [6],≥ 20 µM
same,Kd,HLA-B*15:09,≥ 20 µM
same,Kd,HLA-B*18:01; [6],9 µM
same,Kd,HLA-A*69:01; [6],≥ 20 µM
same,Kd,HLA-B*07:02,≥ 20 µM
same,Kd,HLA-B*58:01,≥ 20 µM
same,Kd,HLA-B*48:01; [7],≥ 20 µM
same,Kd,HLA-A*30:01; [7],≥ 20 µM
FLYDISISL,Kd,HLA-A*02:12; [8],0.003 µM
same,Kd,HLA-A*02:19; [8],0.007 µM
same,Kd,HLA-C*03:03; source organism: Francisella tularensis subsp. tularensis FSC198,≤ 0.001 µM
same,Kd,HLA-A*02:11; [8],≤ 0.001 µM
same,Kd,HLA-A*02:01; [9],0.0011 µM
same,Kd,HLA-A*69:01; [9],0.0157 µM
ERYPGGVSL,Kd,HLA-A*02:12; [4],≥ 20 µM
same,Kd,HLA-A*29:02; [4],≥ 20 µM
same,Kd,HLA-A*02:16; [4],≥ 20 µM
same,Kd,HLA-A*02:03 [1]; [4],≥ 20 µM
same,Kd,HLA-A*02:19; [4],≥ 20 µM
same,Kd,HLA-A*03:01; [4],≥ 20 µM
same,Kd,HLA-B*51:01; [4],≥ 20 µM
same,Kd,HLA-A*02:11; [4],≥ 20 µM
same,Kd,HLA-B*46:01; [4],≥ 20 µM
same,Kd,HLA-B*57:01; [4],≥ 20 µM
same,Kd,HLA-B*15:17; [4],≥ 20 µM
same,Kd,HLA-A*24:03; [4],≥ 20 µM
same,Kd,HLA-A*26:01; [4],≥ 20 µM
same,Kd,HLA-B*15:01; [4],≥ 20 µM
same,Kd,HLA-B*27:03; [4],≥ 20 µM
same,Kd,HLA-A*68:02; [4],≥ 20 µM
same,Kd,HLA-A*02:01; [4],≥ 20 µM
same,Kd,HLA-B*18:01; [4],≥ 20 µM
same,Kd,HLA-A*69:01; [4],≥ 20 µM
FQLYPPQIL,Kd,HLA-C*03:03; [3],0.033 µM
same,Kd,HLA-B*48:01; [3],0.077 µM
